Literature values as cited in publication PMC6322933.

Molecular target: ZPI (Homo sapiens) (UniProt Q9UK55)
UniProt Q9UK55, sequence (Q9UK55 22-444): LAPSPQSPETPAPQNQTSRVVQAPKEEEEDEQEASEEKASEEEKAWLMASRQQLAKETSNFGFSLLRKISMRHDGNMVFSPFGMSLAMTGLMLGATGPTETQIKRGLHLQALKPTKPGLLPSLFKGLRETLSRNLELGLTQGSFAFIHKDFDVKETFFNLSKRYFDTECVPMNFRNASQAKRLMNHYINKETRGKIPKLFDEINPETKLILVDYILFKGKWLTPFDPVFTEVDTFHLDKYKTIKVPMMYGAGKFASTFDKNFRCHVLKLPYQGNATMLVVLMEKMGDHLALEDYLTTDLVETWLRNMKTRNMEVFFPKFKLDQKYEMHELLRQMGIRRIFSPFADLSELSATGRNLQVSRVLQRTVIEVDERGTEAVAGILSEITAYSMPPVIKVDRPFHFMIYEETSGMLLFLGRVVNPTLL

Protein Z (from UniProt P22891)
Kd: 600 pM
